# Reference: publication PMC6389498
# Biological target: PrfA WT (Listeria monocytogenes, UniProt P22262 1-237)
# Test: BLI; free L-Leu, PrfA:ligand 1:100, no inhibition
# Conditions: protein: recombinant; tags: His-tag (pET28a); chain copies: 2; blunt
# PrfA WT, sequence (P22262 whole entry): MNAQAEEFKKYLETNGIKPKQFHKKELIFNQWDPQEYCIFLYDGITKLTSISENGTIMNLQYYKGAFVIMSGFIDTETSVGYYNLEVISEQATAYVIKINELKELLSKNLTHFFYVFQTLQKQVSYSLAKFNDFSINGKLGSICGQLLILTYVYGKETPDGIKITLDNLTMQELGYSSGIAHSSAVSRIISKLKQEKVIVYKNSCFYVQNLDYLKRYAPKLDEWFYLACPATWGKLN
binder,measurement,value
PplcA/Phly PrfA box (Phlybox) (dsDNA) DNA 1: TGTCCCTTTATCGTCGTTAACAAATGTTAATGCCTCGACA DNA 2: TGTCGAGGCATTAACATTTGTTAACGACGATAAAGGGACA,binding result,binds
